# Laboratory results published in US12534533B2, “Anti-chemokine like receptor 1 humanized antibodies and their therapeutic applications” (OSE IMMUNOTHERAPEUTICS, priority 2019, dated 2026).
# B1: 2G1: parental chimeric anti-CMKLR1 antibody: heavy chain variable domain SEQ ID No. 37, light chain variable domain SEQ ID No. 49 (antibody, V domains shown)
# VH: EVQLVASGGGLVQPGGSLKLSCAASGFTFSSYGMSWVRQTPDRRLELVATINRYGGSTYYPDSVKGRFTISRDNAKNTLYLQMSSLKSEDTAMYYCPRLIYYGNEGDSWGQGTTLTVSS
# VL: QIVLTQSPAIMSASPGEKVTMTCSASSSVSFMHWYQQKSGTSPKRWIYDTTKLTSGVPARFSGSGSGTFYSLTISSMEAEDAATYYCQQWNSKPPLTFGPGTKLELKR
# Experiments:
# [1] = tested on: CCR7 expression at the surface of pro-inflammatory macrophages M1; assay: CCR7 expression on M1 macrophages with coated antibodies; type: cell-based, human; conditions: antibody coated on plate, 48 h, flow cytometry; vs isotype control; FIG. 25, FIG. 35
# Experimental: FIG. 25. Inhibition of CCR7 expression on M1 macrophages cells in vitro with anti-ChemR23 antibodies coated. 2G1 and all humanized 2G1 variants (HALA, HCLC, HCLD, HDLC and HDLD) were immobilized on plate. Isotype control were added as controls. Two isotypes which prevent FcRγ binding, i.e., 2G1-N297A (2G1 wt mutated in N297A to reduce FcγR binding), and 2G4 (wt with isotype IgG4mutated in S228P to stabilise hinge region) were also added. Pro-inflammatory macrophages M1 were added on coated plate for 48 h, and CCR7 expression at the surface of the macrophages was measured by flow cytometry.
# FIG. 35—Inhibition of CCR7 expression on M1 macrophages cells in vitro with anti-ChemR23 antibody coated. The humanized 2G1 variant HEF-LD-T52S was immobilized on plate. Isotype control were added as controls. Pro-inflammatory macrophages M1 were added on coated plate, and CCR7 expression at the surface of the macrophages was measured by flow cytometry.
# MATERIAL AND METHODS. […]
# RESULTS. […] Pro-inflammatory macrophages M1 were added on coated plate for 48 h, and CCR7 expression at the surface of the macrophages was measured by flow cytometry.
# The humanized 2G1 variant HEF-LD-T52S was immobilized on plate. […] Pro-inflammatory macrophages M1 were added on coated plate for 48 h, and CCR7 expression at the surface of the macrophages was measured by flow cytometry. […]
# 4T1 cells = assay: orthotopic mammary carcinoma model (4T1); type: in vivo, mice
# Experimental: FIG. 8. Effect of an anti-CMKLR1 antibody on a 4T1 breast tumor model. Mice were inoculated with 4T1 cells (0.25 million) in the mammary gland. Then the anti-CMKLR1 antibody (2G1) (A. […]B. ●) or an anti-41BB antibody (3H3) (●) or both antibodies (▴) were injected twice at day 4 and day 7 (10 μg/injection) or a control antibody (IgG1 isotype antibody clone 3G8) (x A. and B.) was injected three time a week for three weeks. A. The tumor area was measured 8 days after tumor injection and then every 2 days. B. Tumor lung metastasis was measured by Bioluminescence imaging (BLI) in animals treated with isotype control and anti-CMKLR1 antibody (n=4).
# Mice were anesthetized with 3% of isoflurane. Mice were shaved on the abdomen and 4T1 cells (0.25 millions) were injected in the mammary gland with an insulinic syringe (30 Gauges) in 50 μL of PBS. The anti-CMKLR1 antibody (2G1) or an anti-41BB antibody (3H3) or both antibodies were injected twice at day 4 and day 7 (10 μg/injection); a control antibody was injected three times a week for three weeks intraperitoneally in PBS (100 μg/injection). In a second study to measure the lung metastasis following mammary carcinoma development, animals were treated with anti-CMKLR1 antibody at 0.8 mg/kg or control antibody (100 μg/injection) three times a week for three weeks.
# Hepa 1.6 cells = assay: Hepatocarcinoma model (HCC), orthotopic murine hepatoma; type: in vivo, mice; conditions: anti-CMKLR1 0.8 mg/kg three times per week, anti-PD1 8 mg/kg, 2 weeks; followed sixty days; FIG. 20
# Experimental: FIG. 20. Effect of an anti-CMKLR1 antibody on a Hepatocarcinoma mice model (HCC model). Anti-tumor effect of anti-CMKLR1 antibody (2G1, 0.8 mg/kg) i.p. administration three times a week for 2 weeks in combination (▴) or not (●) with two injections on day 4 and 8 of anti-PD1 mAb (RMP1-14 clone, 8 mg/kg) or with injections (twice a week) of anti-PD-1 antibody alone (Δ). Mice have been treated during 2 weeks in an orthotropic model of murine hepatoma (2.5.10^6 of Hepa 1.6 cells injected through the portal vein on day 0). Isotype control antibody was used at 0.8 mg/kg three times a week for 2 weeks. Mice response were considered partial (PR) when mice survive few days to 1 month after stop of treatment or complete (CR) when mice survive over 1 month or cured when they survive three times longer than the time necessary to all control mice dye.
# Method: Mice were anesthetized with a cocktail of xylazine/ketamine. After a laparotomy, tumoral Hepa 1.6 cells were injected in PBS through the portal vein (2.5·10^6 cells/100 μL) in PBS. The treatment was started 4 days after tumor injection. The anti-CMKLR1 antibody (2G1clone) and the hIgG1 istotype control were injected at 0.8 mg/kg three times per week during 2 weeks. The anti-PD1 monoclonal antibody was injected twice a week during 2 weeks intraperitoneally in PBS (8 mg/kg). […]
molecule,measurement,setting,value
B1,expression of CCR7 at the surface of pro-inflammatory macrophages (M1),[1],able to decrease expression of CCR7
same,tumor growth (tumor area),"4T1 cells; 10 μg/injection at day 4 and day 7, vs isotype control, FIG. 8A",did not show any improvement
same,lung metastasis by bioluminescence imaging,"4T1 cells; 0.8 mg/kg three times a week for three weeks, vs control antibody, FIG. 8B",reduces the lung metastasis
same,lymph node metastasis,"4T1 cells; two animals in the control have metastasis, data not shown",no animals treated with the anti-CMKLR1 compound has metastasis
same,survival rate (treated animals with prolonged survival),Hepa 1.6 cells,15%
